Measured values reported in patent US20180155451A1 (published 2018).

T1: FcγRIIb (human, UniProt P31994 43-217)
T1 construct: extracellular domain; also called FcgRIIb; 2b; not shown: His tag at the C terminus
T1 sequence (looked up): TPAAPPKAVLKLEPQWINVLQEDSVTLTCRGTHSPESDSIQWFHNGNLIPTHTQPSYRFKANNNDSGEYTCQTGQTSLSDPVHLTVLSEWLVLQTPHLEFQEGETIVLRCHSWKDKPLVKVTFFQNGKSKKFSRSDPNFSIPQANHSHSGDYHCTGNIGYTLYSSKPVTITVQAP

T2: FcγRIIb (human, UniProt P31994 43-217)
T2 construct: extracellular domain; Soluble extracellular domain with C-terminal His tag, used as analyte in Biacore; also called FcgRIIb; 2b; not shown: His tag attached to the C terminus
T2 sequence (looked up): T1 sequence (looked up)

B1: GpH7-A5/GpH7-B3 variant S267_04F/GpL16-k0 (antibody, human IgG1, kappa)
heavy 1: not shown
heavy 2: not shown
light: DIVMTQSPLSLPVTPGEPASISCQASESLVHSNRNTYLHWYLQKPGQSPQLLIYKVSNRFSGVPDRFSGSGSGTDFTLKISRVEAEDVGVYYCSQNTHVPPTFGQGTKVEIERTVAAPSVFIFPPSDEQLKSGTASVVCLLNNFYPREAKVQWKVDNALQSGNSQESVTEQDSKDSTYSLSSTLTLSKADYEKHKVYACEVTHQGLSSPVTKSFNRGEC
notes: He Ab: mutation only in the GpH7-B3 H chain; EU numbering; also called He Ab
B2: GpH7-A5/GpH7-B3 variant S267_18N/GpL16-k0 (antibody, human IgG1, kappa)
heavy 1: not shown
heavy 2: not shown
light: B1 light
notes: as for B1
B3: GpH7-A5/GpH7-B3 variant D265_10E/GpL16-k0 (antibody, human IgG1, kappa)
heavy 1: not shown
heavy 2: not shown
light: B1 light
notes: as for B1
B4: GpH7-A5/GpH7-B3 variant V266_05P/GpL16-k0 (antibody, human IgG1, kappa)
heavy 1: not shown
heavy 2: not shown
light: B1 light
notes: as for B1
B5: GpH7-A5/GpH7-B3 variant D265_12R/GpL16-k0 (antibody, human IgG1, kappa)
heavy 1: not shown
heavy 2: not shown
light: B1 light
notes: as for B1
B6: GpH7-A5/GpH7-B3 variant D265_07I/GpL16-k0 (antibody, human IgG1, kappa)
heavy 1: not shown
heavy 2: not shown
light: B1 light
notes: as for B1
B7: GpH7-A5/GpH7-B3 variant S267_20W/GpL16-k0 (antibody, human IgG1, kappa)
heavy 1: not shown
heavy 2: not shown
light: B1 light
notes: as for B1
B8: GpH7-A5/GpH7-B3 variant V266_01G/GpL16-k0 (antibody, human IgG1, kappa)
heavy 1: not shown
heavy 2: not shown
light: B1 light
notes: as for B1
B9: GpH7-A5/GpH7-B3 variant D265_08L/GpL16-k0 (antibody, human IgG1, kappa)
heavy 1: not shown
heavy 2: not shown
light: B1 light
notes: as for B1
B10: GpH7-A5/GpH7-B3 variant V266_09D/GpL16-k0 (antibody, human IgG1, kappa)
heavy 1: not shown
heavy 2: not shown
light: B1 light
notes: as for B1
B11: GpH7-A5/GpH7-B3 variant D265_14T/GpL16-k0 (antibody, human IgG1, kappa)
heavy 1: not shown
heavy 2: not shown
light: B1 light
notes: as for B1
B12: GpH7-A5/GpH7-B3 variant V266_04F/GpL16-k0 (antibody, human IgG1, kappa)
heavy 1: not shown
heavy 2: not shown
light: B1 light
notes: as for B1
B13: GpH7-A5/GpH7-B3 variant V266_06M/GpL16-k0 (antibody, human IgG1, kappa)
heavy 1: not shown
heavy 2: not shown
light: B1 light
notes: Heterodimerized IgG1; mutation in the GpH7-B3 H chain only; also called He Ab
B14: GpH7-A5/GpH7-B3 variant S267_07I/GpL16-k0 (antibody, human IgG1, kappa)
heavy 1: not shown
heavy 2: not shown
light: B1 light
notes: as for B13
B15: GpH7-A5/GpH7-B3 variant S267_10E/GpL16-k0 (antibody, human IgG1, kappa)
heavy 1: not shown
heavy 2: not shown
light: B1 light
notes: as for B13
B16: GpH7-A5/GpH7-B3 variant V266_07I/GpL16-k0 (antibody, human IgG1, kappa)
heavy 1: not shown
heavy 2: not shown
light: B1 light
notes: as for B13
B17: GpH7-A5/GpH7-B3 variant S267_09D/GpL16-k0 (antibody, human IgG1, kappa)
heavy 1: not shown
heavy 2: not shown
light: B1 light
notes: as for B13
B18: GpH7-A5/GpH7-B3 variant S267_19Q/GpL16-k0 (antibody, human IgG1, kappa)
heavy 1: not shown
heavy 2: not shown
light: B1 light
notes: as for B13
B19: GpH7-A5/GpH7-B3 variant V266_12R/GpL16-k0 (antibody, human IgG1, kappa)
heavy 1: not shown
heavy 2: not shown
light: B1 light
notes: as for B13
B20: GpH7-A5/GpH7-B3 variant V266_08L/GpL16-k0 (antibody, human IgG1, kappa)
heavy 1: not shown
heavy 2: not shown
light: B1 light
notes: as for B13

biological target: T3, FcγRIa (human, UniProt P12314 16-292); test: SPR; He/Con_1a divided by He/Con_2b (FcγRIIb as reference)
T3 construct: extracellular domain; also called FcgRI; 1a; not shown: His tag at the C terminus
T3 sequence (P12314 16-292): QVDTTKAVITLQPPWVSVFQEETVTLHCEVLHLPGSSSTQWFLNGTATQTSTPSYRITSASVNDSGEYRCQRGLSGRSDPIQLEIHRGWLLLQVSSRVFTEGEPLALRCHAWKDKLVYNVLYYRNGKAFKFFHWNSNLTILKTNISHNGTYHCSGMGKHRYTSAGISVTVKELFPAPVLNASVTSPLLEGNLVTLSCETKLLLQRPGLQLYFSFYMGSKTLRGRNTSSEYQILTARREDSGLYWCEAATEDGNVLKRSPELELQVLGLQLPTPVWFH

Ia/IIb He_1a/2b [ratio]	Binder
2.04	B1
2.15	B2
2.66	B3
205	B4
2.96	B5
41.2	B6
1.74	B7
1.77	B8
12.4	B9
7.88	B10
4.9	B11
1.68	B12

biological target: T4, FcγRIa (human, UniProt P12314 16-292); test: SPR (Biacore); He/Con_1a divided by He/Con_2b (FcγRIa against FcγRIIb)
T4 construct: extracellular domain; Soluble extracellular domain with C-terminal His tag, used as analyte in Biacore; also called FcgRI; 1a; not shown: His tag attached to the C terminus
T4 sequence (P12314 16-292): as above

Ia/IIb He_1a/2b [ratio]	Binder
0.4	B13
0.52	B14
0.28	B15
0.65	B16
0.35	B17
0.47	B18
-55.6	B19
0.42	B20

biological target: T3, FcγRIa; test: SPR (Biacore), captured antibody, soluble FcγR; relative to GpH7-A5/GpH7-B3/GpL16-k0

He/Con_1a	Binder
97.7 relative, HeCon Ab = 100	B1
102 relative, HeCon Ab = 100	B2
101 relative, HeCon Ab = 100	B3
71.9 relative, HeCon Ab = 100	B4
44.3 relative, HeCon Ab = 100	B5
54.4 relative, HeCon Ab = 100	B6
99.4 relative, HeCon Ab = 100	B7
91.3 relative, HeCon Ab = 100	B8
56.8 relative, HeCon Ab = 100	B9
79.3 relative, HeCon Ab = 100	B10
78.5 relative, HeCon Ab = 100	B11
96.7 relative, HeCon Ab = 100	B12

biological target: T1, FcγRIIb; test: as above

He/Con_2b	Binder
48 relative, HeCon Ab = 100	B1
47.7 relative, HeCon Ab = 100	B2
38.2 relative, HeCon Ab = 100	B3
0.4 relative, HeCon Ab = 100	B4
15 relative, HeCon Ab = 100	B5
1.3 relative, HeCon Ab = 100	B6
57.2 relative, HeCon Ab = 100	B7
51.5 relative, HeCon Ab = 100	B8
4.6 relative, HeCon Ab = 100	B9
10.1 relative, HeCon Ab = 100	B10
16 relative, HeCon Ab = 100	B11
57.6 relative, HeCon Ab = 100	B12

biological target: T4, FcγRIa; test: SPR (Biacore), antibody captured on antigen peptide, FcγR as analyte; relative to GpH7-A5/GpH7-B3/GpL16-k0 = 100

He/Con_1a	Binder
99.7 % of control	B13
100 % of control	B14
106 % of control	B15
99.3 % of control	B16
110 % of control	B17
102 % of control	B18
59.2 % of control	B19
98.1 % of control	B20

biological target: T2, FcγRIIb; test: as above

He/Con_2b	Binder
251 % of control	B13
192 % of control	B14
379 % of control	B15
152 % of control	B16
310 % of control	B17
218 % of control	B18
-1.1 % of control	B19
236 % of control	B20
